# Source: patent US11203773B2, “Designer ribosomes and methods of use thereof for incorporating non-standard amino acids into polypeptides” (Yale University, priority 2016, dated 2021)
# B1: E. coli MetRS (Escherichia coli K-12) (protein)
# chain: MTQVAKKILVTCALPYANGSIHLGHMLEHIQADVWVRYQRMRGHEVNFICADDAHGTPIMLKAQQLGITPEQMIGEMSQEHQTDFAGFNISYDNYHSTHSEENRQLSELIYSRLKENGFIKNRTISQLYDPEKGMFLPDRFVKGTCPKCKSPDQYGDNCEVCGATYSPTELIEPKSVVSGATPVMRDSEHFFFDLPSFSEMLQAWTRSGALQEQVANKMQEWFESGLQQWDISRDAPYFGFEIPNAPGKYFYVWLDAPIGYMGSFKNLCDKRGDSVSFDEYWKKDSTAELYHFIGKDIVYFHSLFWPAMLEGSNFRKPSNLFVHGYVTVNGAKMSKSRGTFIKASTWLNHFDADSLRYYYTAKLSSRIDDIDLNLEDFVQRVNADIVNKVVNLASRNAGFINKRFDGVLASELADPQLYKTFTDAAEVIGEAWESREFGKAVREIMALADLANRYVDEQAPWVVAKQEGRDADLQAICSMGINLFRVLMTYLKPVLPKLTERAEAFLNTELTWDGIQQPLLGHKVNPFKALYNRIDMRQVEALVEASKEEVKAAAAPVTGPLADDPIQETITFDDFAKVDLRVALIENAEFVEGSDKLLRLTLDLGGEKRNVFSGIRSAYPDPQALIGRHTIMVANLAPRKMRFGISEGMVMAAGPGGKDIFLLSPDAGAKPGHQVK
# B2: E. coli PheRS (Escherichia coli K-12) (protein)
# chain: MSHLAELVASAKAAISQASDVAALDNVRVEYLGKKGHLTLQMTTLRELPPEERPAAGAVINEAKEQVQQALNARKAELESAALNARLAAETIDVSLPGRRIENGGLHPVTRTIDRIESFFGELGFTVATGPEIEDDYHNFDALNIPGHHPARADHDTFWFDTTRLLRTQTSGVQIRTMKAQQPPIRIIAPGRVYRNDYDQTHTPMFHQMEGLIVDTNISFTNLKGTLHDFLRNFFEEDLQIRFRPSYFPFTEPSAEVDVMGKNGKWLEVLGCGMVHPNVLRNVGIDPEVYSGFAFGMGMERLTMLRYGVTDLRSFFENDLRFLKQFK
# notes: made in house; host or cells: E. coli BL21(DE3)
# B3: E. coli TyrRS (Escherichia coli K-12) (protein)
# chain: MASSNLIKQLQERGLVAQVTDEEALAERLAQGPIALYCGFDPTADSLHLGHLVPLLCLKRFQQAGHKPVALVGGATGLIGDPSFKAAERKLNTEETVQEWVDKIRKQVAPFLDFDCGENSAIAANNYDWFGNMNVLTFLRDIGKHFSVNQMINKEAVKQRLNREDQGISFTEFSYNLLQGYDFACLNKQYGVVLQIGGSDQWGNITSGIDLTRRLHQNQVFGLTVPLITKADGTKFGKTEGGAVWLDPKKTSPYKFYQFWINTADADVYRFLKFFTFMSIEEINALEEEDKNSGKAPRAQYVLAEQVTRLVHGEEGLQAAKRITECLFSGSLSALSEADFEQLAQDGVPMVEMEKGADLMQALVDSELQPSRGQARKTIASNAITINGEKQSDPEYFFKEEDRLFGRFTLLRRGKKNYCLICWK
# notes: as for B2
# How the values were obtained:
# [1] = substrate: CSCC[C@H](N)C(=O)O; assay: purified protein, by the assay type; settings: MetRS
# [2] = substrate: N[C@@H](Cc1ccccc1)C(=O)O; assay: purified protein, by the assay type; settings: other: adenylation, PheRS; pH 7.0; 25.0 °C
# Description: Adenylation of α- and β-Amino Acids Catalyzed by E. coli PheRS, GlyRS, MetRS, and GluRS. […] Briefly, assay mixtures (50 μL) assembled at 25° C. contained the requisite α- or β^3-amino acid substrate (between 5 μM and 5 mM) in 100 mM HEPES (pH 7.0) containing 100 mM KCl, 15 mM MgCl2, 2 mM ATP, 0.5 mM NaPPi, and 50 μCi [^32P]-NaPPi). Reactions were initiated upon addition of enzyme (10 nM MetRS, 10 nM PheRS, or 50 nM GlyRS; 100 nM GluRS for reactions with α-Glu or 1.13 μM GluRS for reactions with β^3-Glu), incubated for various times (10 sec to 10 min), and halted by adding a 5 μL reaction aliquot to 100 μL quenching solution (10% charcoal, 0.5% HCl). 50 μL of 200 mM NaPPi in 1.5 N HCl was then added to each quenched reaction to decrease nonspecific binding of pyrophosphate to the charcoal. Each quenched reaction was then filtered through Whatman filter paper (number 3), previously washed with washing solution (200 mM NaPPi in 1 N HCl) using a 96-well BIO-DOT® apparatus (BioRad). Each well of the apparatus was then washed four times with 200 μL aliquots of washing solution (by pipetting washing solution up and down at least 10 times per wash) to minimize nonspecific binding of pyrophosphate to charcoal. Each experimental well was paired with an analogous control well (no-enzyme control) that lacked enzyme; a single membrane contained time points for both α- and β^3-amino acid substrates and all no-enzyme controls. The membrane was allowed to dry and was protected with a sheet of Microseal B adhesive seals (Biorad) prior to exposure to a BAS Storage Phosphor screen. Screens were imaged on a Typhoon 9500FLA biomolecule imager and the signal intensity of each dot was quantified using ImageJ to determine the relative amount of [^32P]-ATP formed as a function of time (Ctime). Each raw value were corrected by subtracting the intensity of the dot corresponding to the appropriate no-enzyme control (Cblank) and the resulting corrected values of Ccorr (representing the relative amounts of ^32P-ATP formed) were plotted as a function of time to determine values of relative ^32P-ATP formed per minute. Those values were divided by the concentration of enzyme used, and the data was plotted as relative specific activity (^32P-ATP formed min^−1×μM^−1 enzyme) and fitted using Prism by performing nonlinear regression using the least squares method and Equation 1 to obtain RSA (relative specific activity) and KM values (Equation 1 and Table 2).
# In Equation 1, v is the apparent relative specific activity (relative ^32P-ATP formed per minute) obtained at each substrate concentration divided by the enzyme concentration, RSA is the relative specific activity, S is the concentration of substrate, and KM is the Michaelis-Menten constant.
# [3] = substrate: N[C@@H](Cc1ccccc1)C(=O)O; assay: Aminoacylation of 32P-tRNA with α- and β3-amino acids; type: biochemical, E. coli; settings: other: aminoacylation, PheRS
# [4] = substrate: N[C@@H](Cc1ccc(O)cc1)C(=O)O; assay: Adenylation of α- and β-Tyr, coupled MESG/PNP pyrophosphate release assay; type: biochemical, E. coli; settings: other: adenylation, TyrRS
# Source text: ii. Adenylation of α- and β-Tyr catalyzed by E. coli TyrRS. These reactions were monitored spectrophotometrically in a coupled assay using inorganic pyrophosphatase, 2-amino-6-mercapto-7-methylpurine ribonucleoside (MESG), and purine nucleoside phosphorylase (PNP) to monitor the rate of pyrophosphate release, according to the manufacturer's instructions (Enzcheck Pyrophosphate assay kit, Thermo Fisher Scientific). The assay measures the increase in absorbance at 360 nm due to MESG phosphorolysis, and two molecules of MESG are consumed per pyrophosphate generated. This direct assay could be employed for TyrRS because the rate of ATP hydrolysis (in the absence of amino acid substrate) was insignificant, which was not the case for the other synthetases which therefore required the more laborious pyrophosphate exchange assay described above. […] For TyrRS, kcat is the turnover number (units of reciprocal time) since the change in absorbance can be directly correlated to concentration of pyrophosphate formed.
# [5] = substrate: N[C@@H](Cc1ccc(O)cc1)C(=O)O; assay: Aminoacylation of 32P-tRNA with α- and β3-amino acids; type: biochemical, E. coli; settings: other: aminoacylation, TyrRS
protein,measurement,setting,value
B1,Km,"[1]; other: adenylation, pH 7.0, 25.0 °C",23.4 ± 8.0 µM
same,Km,[1]; other: aminoacylation,243.4 ± 55.7 µM
same,kcat,[1]; other: aminoacylation,0.0233 s⁻¹
same,kcat/Km,[1]; other: aminoacylation,100 M⁻¹ s⁻¹
B2,Km,[2],52.8 ± 25.8 µM
same,Km,[3],200.4 ± 78.8 µM
B3,Km,[4],21.4 ± 6.9 µM
same,kcat,[4],0.0203 ± 0.00183 s⁻¹
same,kcat/Km,[4],1000 ± 333 M⁻¹ s⁻¹
same,Km,[5],12.4 ± 4.8 µM
same,kcat,[5],1.18 ± 0.128 s⁻¹
same,kcat/Km,[5],95000 ± 38300 M⁻¹ s⁻¹
